B1: RIPK4 (parent)
chain: RERMELLEEAKKMEMAKFRYILPV
B2: MTMR15 (parent)
chain: FSPDFTLRNTLKSTSEDSLVKQEC

Variants of: B1
Test: protein stability index of a GFP-peptide fusion (GPS, HEK-293T) (PSI 1-6); higher = more stable
Settings: c terminus: a fixed tail appended
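Also: lentivirally expressed fusions sorted by FACS into six bins by GFP to DsRed ratio, PSI derived from sequencing read proportions per bin multiplied by bin number.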

Variant | protein stability index
E8H | 2.67
E8V | 1.69
E8C | 3.01
E8W | 3.05
E8P | 3.14
E8I | 2.11
E8M | 2.69
A16E | 2.9
A16K | 3.8
A16Q | 3.62
A16T | 2.85
A16G | 3.31
A16W | 2.58
A16V | 3.03
A16H | 4.27
Y20G | 3.74
Y20H | 2.83
Y20L | 2.03
Y20T | 3.4
Y20P | 3.57
Y20A | 3.73
Y20N | 3.05
V24D | 3.64

Variant | protein stability index
V24R | 3.65
E2Y | 2.74
E2C | 1.34
E2D | 3.21
E2A | 2.42
P23N | 1.63
P23G | 1.95
P23K | 1.83
P23R | 3.69
P23E | 2.7
M13Y | 2.92
M13G | 3.56
M13A | 3.1
M13E | 3.19
M13P | 2.34
M15K | 3.93
M15W | 2
M15V | 3.02
M4C | 3.69
M4Q | 3.76
M4I | 3.08
M4D | 4.17
E14A | 2.78

Variant | protein stability index
E14D | 3.8
E14W | 2.92
E14L | 2.44
E14R | 2.06
E9I | 2.57
E9K | 3.65
E9F | 2.37
E9C | 2.12
E9W | 2.16
E9P | 3.42
E9V | 2.43
K12Q | 3.41
K12S | 2.75
K12P | 3.5
K12W | 2.65
K12L | 2.21
L22A | 4.27
L22S | 3.28
L22K | 4.1
L22R | 4.07
L22Q | 3.69
L22I | 5.51
A10Y | 3.93

Variant | protein stability index
A10H | 2.94
A10N | 3.85
A10E | 3.54
A10W | 3.58
A10K | 4.38
K11N | 3.08
K11E | 3.97
K11G | 3.04
K11S | 3.37
K11F | 2.67
K11P | 2.91
L6Q | 3.08
L6W | 3
L6T | 3.49
L6R | 3.56
L6V | 2.9
L6Y | 3.83
R3V | 2.42
R3S | 3.85
R3E | 4.38
R3G | 2.58
R3A | 3.48
R3W | 1.73

Variant | protein stability index
R3C | 3.26
R3H | 3.89
R1A | 3.83
R1V | 3.83
R1I | 3.29
R1S | 3.53
R1P | 3.85
R1E | 3.99
R1H | 4.5
R19M | 1.97
R19K | 3.04
R19L | 2.14
R19Y | 2.38
E5A | 2.9
E5W | 2.23
E5I | 2.26
E5N | 2.87
E5R | 2.97
F18A | 3.16
F18M | 2.75
F18C | 2.75
F18N | 4.03
L7A | 3.35

Variant | protein stability index
L7Y | 2.52
L7Q | 3.87
L7V | 2.78
L7M | 3.48
L7K | 3.99
L7I | 3.42
L7S | 3.66
K17N | 1.01
K17V | 2.75
K17Q | 3.5
K17H | 2.68
K17I | 2.72
K17S | 2.99
I21E | 4.11
I21Y | 2.18
I21F | 4.25
I21K | 3.45
I21L | 3.42

Variants of: B2
Test: as above
Settings: c terminus: a fixed tail appended

Variant | protein stability index
L11M | 2.31
L11K | 2
L11A | 1.57
L11H | 1.76
L11D | 2.25
L11E | 2.25
L11G | 2.11
L11F | 2.47
L11C | 2.42
L11I | 2.83
L11N | 1.94
T10S | 1.82
T10E | 2.37
T10L | 2.61
T10A | 2.16
T10G | 2.03
T10M | 2.11
T10K | 1.72
T10F | 2.7
T10N | 1.87
T10W | 2.32
T10D | 1.99
T10R | 2.15
T10I | 2.64
T10Q | 1.59
T10H | 3.86

Variant | protein stability index
T10C | 2.14
T10V | 1.76
T10Y | 2.27
T10P | 1.7
S2K | 4.27
S2E | 4.8
S2F | 4.04
S2D | 5
S2W | 3.6
S2R | 4.02
S2H | 2.55
S2Q | 3.32
S2N | 3.68
S2G | 2.48
S2Y | 4.52
S2T | 2.23
S2P | 2.9
S2C | 2.19
S2I | 1.92
S2L | 3.19
S2A | 2.08
S2M | 3.69
S2V | 2.88
T6E | 3.39
T6Q | 2.24
T6S | 2.27

Variant | protein stability index
T6Y | 2.46
T6G | 2.63
T6M | 1.92
T6P | 1.92
T6R | 1.77
T6K | 2.01
T6I | 3.13
T6L | 2.8
T6A | 1.72
T6V | 1.82
T6W | 1.84
T6N | 1.77
T6H | 1.45
T6F | 1.84
T6C | 2.73
T6D | 2.7
F5S | 3.19
F5P | 3.59
F5W | 3.6
F5H | 3.52
F5C | 3.42
F5G | 1.99
F5R | 3.26
F5Q | 3.5
F5E | 4.83
F5A | 3.75

Variant | protein stability index
F5T | 3.17
F5D | 4.35
F5I | 3.65
F5M | 3.62
F5Y | 2.61
F5N | 3.82
F5K | 3.79
F5V | 3.56
F5L | 3.54
R8F | 1.89
R8H | 1.89
R8G | 1.79
R8Q | 2.62
R8M | 1.77
R8D | 2.68
R8V | 2.14
R8T | 1.73
R8E | 3.28
R8K | 1.7
R8I | 2.88
R8N | 1.58
R8W | 2.17
R8A | 2.01
R8C | 2.75
R8S | 1.9
R8P | 2.67

Variant | protein stability index
R8Y | 2.44
R8L | 2.36
P3R | 1.98
P3L | 2.24
P3G | 2.27
P3K | 2.26
P3M | 1.99
P3I | 2.44
P3H | 3.05
P3E | 3.14
P3Y | 2.76
P3A | 1.97
P3W | 1.97
P3N | 3.08
P3C | 2.64
P3V | 2.58
P3Q | 2.83
P3S | 2.67
P3F | 2.83
P3T | 2.76
P3D | 3.91
L7Y | 2.27
L7A | 1.99
L7K | 2.39
L7W | 2.16
L7G | 2.48

Variant | protein stability index
L7Q | 2.16
L7M | 3.06
L7R | 2.56
L7V | 1.83
L7P | 2.54
L7N | 1.91
L7H | 2.15
L7C | 2.25
L7E | 2.99
L7I | 2.3
L7S | 2.08
L7D | 3.03
L7T | 2.75
L7F | 2.04
F1V | 4.83
F1T | 5.28
F1C | 4.17
F1K | 5
F1W | 4.39
F1Y | 2.04
F1P | 5.1
F1I | 4.71
F1E | 5.32
F1D | 5.25
F1H | 4.96
F1G | 5.09

Variant | protein stability index
F1A | 3.9
F1S | 4.81
F1L | 5.21
F1R | 4.98
F1M | 4.87
F1N | 5.19
F1Q | 4.96
N9F | 2.7
N9C | 2.35
N9L | 2.02
N9A | 1.67
N9P | 1.82
N9V | 2.18
N9S | 2.34
N9Y | 3.7
N9Q | 1.96
N9T | 2.09
N9K | 2.11
N9W | 2.62
N9H | 1.57
N9D | 1.54
N9M | 2.64
N9I | 2.41
N9R | 2.62
N9G | 1.93
N9E | 1.72

Variant | protein stability index
D4C | 1.78
D4R | 2.65
D4Y | 3.03
D4H | 1.95
D4M | 1.61
D4Q | 1.45
D4G | 2.65
D4E | 1.94
D4N | 2.23
D4W | 1.96
D4T | 2.07
D4P | 4
D4S | 1.9
D4K | 2.23
D4V | 2.01
D4F | 1.53
D4A | 2.44
D4I | 2.05
D4L | 1.94
